Source: paper PMC3174154, “Protein-Protein Interactions in Crystals of the Human Receptor-Type Protein Tyrosine Phosphatase ICA512 Ectodomain” (PLoS ONE, 2011)

How the values were obtained:
[1] = target: the molecule itself; test: SEC; Superose 12, 20°C, 20 mM sodium phosphate, 150 mM NaCl, pH 7.0; each variant injected at 500 µM in 100 µl, alone or preincubated and injected together
[2] = target: the molecule itself; test: SEC; Rs against protein concentration in the eluting peak; monomer-dimer equilibrium fitted (dimer to monomers); the text names size exclusion chromatography and light scattering

B1: mature ectodomain of ICA512 (ME ICA512), wild type, residues 470 to 558 (domain or fragment, human, UniProt Q16849 470-558, looked up)
chain: EYGYIVTDQKPLSLAAGVKLLEILAEHVHMSSGSFINISVVGPALTFRIRHNEQNLSLADVTQQAGLVKSELEAQTGLQILQTGVGQRE
notes: the results say 470 to 556; The methods give 470-558, the results 470-556; also called wild-type ME ICA512; wild type variant
[1]
  stoichiometry N: 2
[2]
  Kd: 800 nM
